Assay results reported in PMC11190292, “Hetero-oligomerization of TDP-43 carboxy-terminal fragments with cellular proteins contributes to proteotoxicity” (Communications Biology, 2024).

Target: the molecule itself
Test: fluorescence correlation spectroscopy (FCS); soluble supernatant of transfected Neuro2a cell lysate (50 mM Hepes-KOH pH 7.5, 150 mM NaCl, 1% Nonidet P-40); counts per particle (CPP) against GFP monomers as read-out of homo-oligomerisation, diffusion time as read-out of size

B1: GFP-tagged TDP-43 carboxy-terminal fragment 233-414 (C233) (domain or fragment, human, UniProt Q13148 233-414, looked up)
chain: TFADDQIAQSLCGEDLIIKGISVHISNAEPKHNSNRQLERSGRFGGNPGGFGNQGGFGNSRGGGAGLGNNQGSNMGGGMNFGAFSINPAMMAAAQAALQSSWGMMGMLASQQNQSGPSGNNQNQGNMQREPNQAFGSGNNSYSGSNSGAAIGWGSASNAGSGSGFNGGFGSSMDSKSSGWGM
notes: Cloned into pmeGFP-C1 (HindIII/BamHI); also called G-C233; GFP-C233; source: Neuro2a, transfected, in lysate; not shown: GFP (monomeric enhanced GFP, A206K), N-terminal, kept
counts per particle (CPP) relative to GFP monomers: ~4 fold
